According to patent US7118886 (HSC RESEARCH AND DEVELOPMENT LIMITED PARTNERSHIP, dated 2006):

Target: T1, GAL4 DNA binding domain fused to the five SH3 domains of Ese1 (amino acids 665-1213) (mouse, UniProt P04386 1-147 (Saccharomyces cerevisiae entry))
T1 construct: Yeast two-hybrid bait; also called pGBT9Ese1A3.3; SH3 domain bait of Ese1
Experiment: yeast two-hybrid screen with amino acids 665-1213 of Ese1 as bait

binding result: binds
B1: Mouse YNK1 partial protein, GAL4 activation domain library clone (other, not shown: large carriers)
chain: LRAEGAKFRAVLDKAVQADGQVKERYQSHRDTIALLCKPEPELNAAIPSANPAKTMQGSEVVSVLKSLLSNLDEIKKERESLENDLKSVNFDMTSKFLTALAQDGVINEEALSVTELDRIYGGLTSKVQESLKKQEGLLKNIQVSHQEFSKMKQSNNEANLREEVLKNLATAYDNFVELVANLKEGTKFYNELTEILVRFQNKCSDIVFARKTERDELLKDLQQSIAREPSAPSIPPPAYQSSPAAGHAAAPPTPAPRTMPPAKPQPPARPPPPVLPANRVPPASAAAAPAGVGTASAAPPQTPGSAPPPQAQGPPYPTYPGYPGYCQMPMPMGYNPYAYGQYNMPYPPVYHQSPGQAPYPGPQQPTYPFPQPPQQSYYPQQ
